Key:
Type in all cases: physicochemical
[1] = ThT fluorescence assay of Aβ1–40 aggregation
[2] = Analytical ultracentrifugation
[3] = Phase diagram of Aβ1–40 aggregation in water/alcohol mixtures
[4] = representatively selected peak, 2% HFIP, 25 °C
[5] = 6% HFIP, with sonication, 37 °C
[6] = without TFE, with sonication, 10 μM Aβ1–40, 10 mM sodium phosphate buffer pH 7.5, 100 mM NaCl, 5 μM ThT, 37 °C, three independent measurements

## Aβ1–40 oligomers: Aβ1–40 dissolved in 100% HFIP, diluted 10-fold with water; ThT-negative β-structured spherical oligomers
[1]; oligomers + 10 mM sodium phosphate buffer pH 7.5, 100 mM NaCl, quiescent, 37 °C
  time of saturation of ThT fluorescence increase: ~ 35 h
[1]; oligomers + NaCl alone (50–2000 mM), no pH shift, continuous shaking
  increase in ThT intensity: no increase
[1]; oligomers without buffer (pH ~4), ~2 days without agitation, 37 °C
  change in ThT fluorescence intensity of oligomer solution: no changes
[2]; calculated from s-value ~5.2 S
  molecular weight of small oligomers: ~ 70 kDa
[2]; calculated from s-value ~24.7 S
  molecular weight of large oligomers: ~ 740 kDa
[2]; from molecular weight ~70 kDa
  number of Aβ1–40 peptides forming small oligomers: ~ 17
[2]; from molecular weight ~740 kDa
  number of Aβ1–40 peptides forming large oligomers: ~ 170
[2]; [4]
  sedimentation coefficient (s-value), large oligomers: ~ 24.7 S
  sedimentation coefficient (s-value), small oligomers: ~ 5.2 S

## amyloid-β (1–40) [Aβ1–40]
[1]; 2% HFIP, quiescent, 10 μM, pH 7.5, 100 mM NaCl, 37 °C
  lag time before sigmoidal increase in ThT fluorescence: ~ 6 h
[1]; [5]
  conversion rate constant (protofibrils to amyloid fibrils): 2.21 ± 0.85 h⁻¹
  time at which the ThT reaction was completed: ~ 2 h
[1]; 6% HFIP, without sonication, after ~35 h, 37 °C
  change in intensity of ThT fluorescence: did not change
[1]; 50% HFIP, without sonication, test tubes, pH 7.5, 100 mM NaCl, 37 °C
  ThT fluorescence during incubation: maintained a very low intensity
[1]; greater than 40% TFE, with sonication, 10 μM, pH 7.5, 100 mM NaCl, 37 °C
  effect of sonication on ThT fluorescence: did not affect the ThT fluorescence
[1]; more than 25% TFE, quiescent, 10 μM, pH 7.5, 100 mM NaCl, 37 °C
  change in ThT-based kinetics and CD spectra: no change
[1]; without TFE, quiescent, incubation ~2 days, 10 μM, pH 7.5, 100 mM NaCl, 37 °C
  change in ThT fluorescence intensity after incubation: no change
[1]; [6]
  elongation rate constant of amyloid fibrillation (ThT): ~ 10 h^−1
  lag time of amyloid fibrillation (ThT): ~ 1 h
[3]; >40% TFE and >30% HFIP, regardless of extensive sonication
  solubility state at high alcohol concentrations: remained soluble
[3]; water/TFE mixtures, with sonication, 100 mM NaCl, pH 7.5
  amyloid-forming region: 0–25 % TFE

Reference: publication PMC11585080 (ACS nano, 2019)
